Molecular target: T1, MMP substrate, 5-FAM-GGPLGVRGKK(CPQ2)-PEG2-C, presented on the iron-oxide nanoparticle (ABN) surface (not fully specified)
T1 chain: GGPLGVRGKKC

B1: mouse MMP9 (protein)
chain: APYQRQPTFVVFPKDLKTSNLTDTQLAEAYLYRYGYTRAAQMMGEKQSLRPALLMLQKQLSLPQTGELDSQTLKAIRTPRCGVPDVGRFQTFKGLKWDHHNITYWIQNYSEDLPRDMIDDAFARAFAVWGEVAPLTFTRVYGPEADIVIQFGVAEHGDGYPFDGKDGLLAHAFPPGAGVQGDAHFDDDELWSLGKGVVIPTYYGNSNGAPCHFPFTFEGRSYSACTTDGRNDGTPWCSTTADYDKDGKFGFCPSERLYTEHGNGEGKPCVFPFIFEGRSYSACTTKGRSDGYRWCATTANYDQDKLYGFCPTRVDATVVGGNSAGELCVFPFVFLGKQYSSCTSDGRRDGRLWCATTSNFDTDKKWGFCPDQGYSLFLVAAHEFGHALGLDHSSVPEALMYPLYSYLEGFPLNKDDIDGIQYLYGRGSKPDPRPPATTTTEPQPTAPPTMCPTIPPTAYPTVGPTVGPTGAPSPGPTSSPSPGPTGAPSPGPTAPPTAGSSEASTESLSPADNPCNVDVFDAIAEIQGALHFFKDGWYWKFLNHRGSPLQGPFLTARTWPALPATLDSAFEDPQTKRVFFFSGRQMWVYTGKTVLGPRSLDKLGLGPEVTHVSGLLPRRLGKALLFSKGRVWRFDLKSQKVDPQSVIRVDKEFSGVPWNSHDIFQYQDKAYFCHGKFFWRVSFQNEVNKVDHEVNQVDDVGYVTYDLLQCP
cleavage of the substrate: it was confirmed that mouse MMP9 cleaves the ABN MMP9 substrate

Source: patent US20180335429
